Measurements taken from US20250076311A1 (Chugai, published 2025).

T1: cynomolgus monkey FcγRIIa1 extracellular domain, His-tagged (cynomolgus monkey)
T1 construct: also called cyno FcgRIIa1
T1 chain: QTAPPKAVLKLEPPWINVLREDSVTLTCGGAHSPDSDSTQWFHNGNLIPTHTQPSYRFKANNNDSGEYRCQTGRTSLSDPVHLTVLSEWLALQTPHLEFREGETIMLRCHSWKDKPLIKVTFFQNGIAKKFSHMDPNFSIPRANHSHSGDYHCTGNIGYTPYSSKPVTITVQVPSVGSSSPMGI

T2: cynomolgus monkey FcγRIIa2 extracellular domain, His-tagged (cynomolgus monkey)
T2 construct: also called cyno FcgRIIa2
T2 chain: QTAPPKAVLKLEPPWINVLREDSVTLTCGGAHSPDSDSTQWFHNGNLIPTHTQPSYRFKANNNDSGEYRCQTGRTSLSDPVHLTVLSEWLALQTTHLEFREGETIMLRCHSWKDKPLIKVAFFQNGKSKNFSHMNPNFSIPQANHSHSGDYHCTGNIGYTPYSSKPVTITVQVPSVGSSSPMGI

T3: cynomolgus monkey FcγRIIa3 extracellular domain, His-tagged (cynomolgus monkey)
T3 construct: also called cyno FcgRIIa3
T3 chain: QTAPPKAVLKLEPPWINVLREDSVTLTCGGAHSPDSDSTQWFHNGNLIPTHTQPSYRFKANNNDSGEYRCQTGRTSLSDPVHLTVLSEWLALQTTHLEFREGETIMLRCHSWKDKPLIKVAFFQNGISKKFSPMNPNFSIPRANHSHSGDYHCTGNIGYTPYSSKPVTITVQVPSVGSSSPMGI

T4: cynomolgus monkey FcγRIIb extracellular domain, His-tagged (cynomolgus monkey)
T4 construct: also called cyno FcgRIIb
T4 chain: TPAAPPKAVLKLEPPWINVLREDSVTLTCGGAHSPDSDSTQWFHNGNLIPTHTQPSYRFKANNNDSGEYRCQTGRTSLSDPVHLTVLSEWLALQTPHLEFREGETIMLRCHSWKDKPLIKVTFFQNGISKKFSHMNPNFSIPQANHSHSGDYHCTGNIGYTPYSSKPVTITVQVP

T5: cynomolgus monkey FcγRIIIaS extracellular domain, His-tagged (cynomolgus monkey, UniProt Q8SPW2 21-206 at identity 1.00))
T5 construct: also called cyno FcgRIIIaS
T5 chain: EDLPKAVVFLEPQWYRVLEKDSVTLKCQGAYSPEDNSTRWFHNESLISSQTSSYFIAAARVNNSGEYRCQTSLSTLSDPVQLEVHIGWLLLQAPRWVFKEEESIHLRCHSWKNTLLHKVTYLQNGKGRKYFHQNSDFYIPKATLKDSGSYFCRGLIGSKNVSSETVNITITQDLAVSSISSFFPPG

B1: M103205H795-SG170 / M103202L889-SK1 (antibody, human IgG1, kappa, name in EU numbering)
heavy: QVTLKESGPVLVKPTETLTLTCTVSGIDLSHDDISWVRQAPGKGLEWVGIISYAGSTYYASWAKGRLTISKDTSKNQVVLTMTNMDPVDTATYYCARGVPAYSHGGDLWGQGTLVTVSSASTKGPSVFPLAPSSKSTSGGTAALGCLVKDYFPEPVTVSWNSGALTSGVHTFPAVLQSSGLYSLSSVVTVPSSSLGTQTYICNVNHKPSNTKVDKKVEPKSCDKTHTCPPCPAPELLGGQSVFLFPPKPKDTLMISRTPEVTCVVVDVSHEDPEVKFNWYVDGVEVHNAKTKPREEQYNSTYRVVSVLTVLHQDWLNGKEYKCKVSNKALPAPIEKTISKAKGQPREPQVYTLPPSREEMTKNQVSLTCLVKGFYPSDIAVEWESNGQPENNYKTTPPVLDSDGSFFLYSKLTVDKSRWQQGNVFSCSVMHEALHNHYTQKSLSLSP
light: DIVMTQSPATLSLSPGERATLSCTSSQSVYHANWLSWFQQKPGQPPKLLIYWASTLAYGVPSRFSGSGSGTDFTLTISSLQPEDAATYYCAGGYGGGRYAFGQGTKVEIKRTVAAPSVFIFPPSDEQLKSGTASVVCLLNNFYPREAKVQWKVDNALQSGNSQESVTEQDSKDSTYSLSSTLTLSKADYEKHKVYACEVTHQGLSSPVTKSFNRGEC
notes: also called P238Q
B2: M103205H795-SG171 / M103202L889-SK1 (antibody, human IgG1, kappa, name in EU numbering)
heavy: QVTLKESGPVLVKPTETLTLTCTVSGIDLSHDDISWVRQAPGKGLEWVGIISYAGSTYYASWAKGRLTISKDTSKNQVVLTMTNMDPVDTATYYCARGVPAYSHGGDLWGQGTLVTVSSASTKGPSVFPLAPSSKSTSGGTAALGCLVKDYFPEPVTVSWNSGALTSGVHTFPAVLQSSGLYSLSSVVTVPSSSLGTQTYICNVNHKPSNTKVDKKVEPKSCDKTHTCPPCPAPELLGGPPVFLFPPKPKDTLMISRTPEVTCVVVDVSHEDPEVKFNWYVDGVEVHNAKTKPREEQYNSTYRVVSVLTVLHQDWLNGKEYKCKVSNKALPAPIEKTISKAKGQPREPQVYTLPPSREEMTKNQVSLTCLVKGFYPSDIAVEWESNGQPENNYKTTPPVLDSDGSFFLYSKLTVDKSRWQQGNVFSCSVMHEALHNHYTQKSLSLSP
light: DIVMTQSPATLSLSPGERATLSCTSSQSVYHANWLSWFQQKPGQPPKLLIYWASTLAYGVPSRFSGSGSGTDFTLTISSLQPEDAATYYCAGGYGGGRYAFGQGTKVEIKRTVAAPSVFIFPPSDEQLKSGTASVVCLLNNFYPREAKVQWKVDNALQSGNSQESVTEQDSKDSTYSLSSTLTLSKADYEKHKVYACEVTHQGLSSPVTKSFNRGEC
notes: also called S239P
B3: M103205H795-SG172 / M103202L889-SK1 (antibody, human IgG1, kappa, name in EU numbering)
heavy: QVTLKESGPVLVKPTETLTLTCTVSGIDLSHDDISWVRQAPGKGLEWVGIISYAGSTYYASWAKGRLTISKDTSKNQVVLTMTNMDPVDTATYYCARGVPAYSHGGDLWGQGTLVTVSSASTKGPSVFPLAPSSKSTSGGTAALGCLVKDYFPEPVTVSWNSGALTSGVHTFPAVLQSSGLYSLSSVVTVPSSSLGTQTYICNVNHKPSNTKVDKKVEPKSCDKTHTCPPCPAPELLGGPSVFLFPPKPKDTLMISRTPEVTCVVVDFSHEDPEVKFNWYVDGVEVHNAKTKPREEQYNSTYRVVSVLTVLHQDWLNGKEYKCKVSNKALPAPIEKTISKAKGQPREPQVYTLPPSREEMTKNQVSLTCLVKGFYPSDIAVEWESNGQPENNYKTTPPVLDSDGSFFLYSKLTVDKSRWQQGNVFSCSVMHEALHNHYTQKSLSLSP
light: DIVMTQSPATLSLSPGERATLSCTSSQSVYHANWLSWFQQKPGQPPKLLIYWASTLAYGVPSRFSGSGSGTDFTLTISSLQPEDAATYYCAGGYGGGRYAFGQGTKVEIKRTVAAPSVFIFPPSDEQLKSGTASVVCLLNNFYPREAKVQWKVDNALQSGNSQESVTEQDSKDSTYSLSSTLTLSKADYEKHKVYACEVTHQGLSSPVTKSFNRGEC
notes: also called V266F
B4: M103205H795-SG173 / M103202L889-SK1 (antibody, human IgG1, kappa, name in EU numbering)
heavy: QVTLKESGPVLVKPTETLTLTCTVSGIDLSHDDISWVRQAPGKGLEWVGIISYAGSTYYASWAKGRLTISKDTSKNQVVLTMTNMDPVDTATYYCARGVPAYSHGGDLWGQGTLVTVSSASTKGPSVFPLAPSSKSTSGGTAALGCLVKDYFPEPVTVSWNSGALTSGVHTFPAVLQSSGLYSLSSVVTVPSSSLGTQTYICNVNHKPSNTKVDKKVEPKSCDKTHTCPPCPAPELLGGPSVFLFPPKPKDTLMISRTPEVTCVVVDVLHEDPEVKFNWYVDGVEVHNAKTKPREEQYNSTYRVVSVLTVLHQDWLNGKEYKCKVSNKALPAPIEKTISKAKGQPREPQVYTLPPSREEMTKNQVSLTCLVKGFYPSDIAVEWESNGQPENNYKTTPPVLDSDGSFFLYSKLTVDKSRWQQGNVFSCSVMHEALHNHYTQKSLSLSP
light: DIVMTQSPATLSLSPGERATLSCTSSQSVYHANWLSWFQQKPGQPPKLLIYWASTLAYGVPSRFSGSGSGTDFTLTISSLQPEDAATYYCAGGYGGGRYAFGQGTKVEIKRTVAAPSVFIFPPSDEQLKSGTASVVCLLNNFYPREAKVQWKVDNALQSGNSQESVTEQDSKDSTYSLSSTLTLSKADYEKHKVYACEVTHQGLSSPVTKSFNRGEC
notes: also called S267L
B5: M103205H795-SG174 / M103202L889-SK1 (antibody, human IgG1, kappa, name in EU numbering)
heavy: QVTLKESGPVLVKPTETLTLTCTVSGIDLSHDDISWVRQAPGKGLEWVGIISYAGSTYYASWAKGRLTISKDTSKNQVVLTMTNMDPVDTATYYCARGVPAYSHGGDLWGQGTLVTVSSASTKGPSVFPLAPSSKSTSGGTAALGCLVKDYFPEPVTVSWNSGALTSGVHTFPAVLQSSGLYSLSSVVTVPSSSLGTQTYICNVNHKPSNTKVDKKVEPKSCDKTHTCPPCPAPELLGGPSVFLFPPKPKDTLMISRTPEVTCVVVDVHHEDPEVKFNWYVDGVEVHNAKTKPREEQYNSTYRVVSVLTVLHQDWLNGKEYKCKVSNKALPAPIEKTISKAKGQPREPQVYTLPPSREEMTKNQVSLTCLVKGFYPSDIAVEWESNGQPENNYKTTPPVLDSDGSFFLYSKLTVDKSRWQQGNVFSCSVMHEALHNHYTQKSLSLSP
light: DIVMTQSPATLSLSPGERATLSCTSSQSVYHANWLSWFQQKPGQPPKLLIYWASTLAYGVPSRFSGSGSGTDFTLTISSLQPEDAATYYCAGGYGGGRYAFGQGTKVEIKRTVAAPSVFIFPPSDEQLKSGTASVVCLLNNFYPREAKVQWKVDNALQSGNSQESVTEQDSKDSTYSLSSTLTLSKADYEKHKVYACEVTHQGLSSPVTKSFNRGEC
notes: also called S267H
B6: M103205H795-SG175 / M103202L889-SK1 (antibody, human IgG1, kappa, name in EU numbering)
heavy: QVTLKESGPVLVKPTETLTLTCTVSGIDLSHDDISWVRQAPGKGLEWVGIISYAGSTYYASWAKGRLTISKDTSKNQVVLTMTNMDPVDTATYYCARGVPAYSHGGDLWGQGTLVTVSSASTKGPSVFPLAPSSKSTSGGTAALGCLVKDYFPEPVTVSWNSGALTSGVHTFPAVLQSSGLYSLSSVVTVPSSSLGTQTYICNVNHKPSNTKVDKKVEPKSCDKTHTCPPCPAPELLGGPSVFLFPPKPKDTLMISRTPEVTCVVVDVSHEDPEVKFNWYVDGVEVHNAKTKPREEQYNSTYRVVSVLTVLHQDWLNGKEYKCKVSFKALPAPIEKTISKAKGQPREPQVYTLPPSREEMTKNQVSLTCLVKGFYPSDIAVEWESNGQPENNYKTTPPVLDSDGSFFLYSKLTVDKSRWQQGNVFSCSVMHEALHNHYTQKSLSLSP
light: DIVMTQSPATLSLSPGERATLSCTSSQSVYHANWLSWFQQKPGQPPKLLIYWASTLAYGVPSRFSGSGSGTDFTLTISSLQPEDAATYYCAGGYGGGRYAFGQGTKVEIKRTVAAPSVFIFPPSDEQLKSGTASVVCLLNNFYPREAKVQWKVDNALQSGNSQESVTEQDSKDSTYSLSSTLTLSKADYEKHKVYACEVTHQGLSSPVTKSFNRGEC
notes: also called N325F
B7: M103205H795-SG176 / M103202L889-SK1 (antibody, human IgG1, kappa, name in EU numbering)
heavy: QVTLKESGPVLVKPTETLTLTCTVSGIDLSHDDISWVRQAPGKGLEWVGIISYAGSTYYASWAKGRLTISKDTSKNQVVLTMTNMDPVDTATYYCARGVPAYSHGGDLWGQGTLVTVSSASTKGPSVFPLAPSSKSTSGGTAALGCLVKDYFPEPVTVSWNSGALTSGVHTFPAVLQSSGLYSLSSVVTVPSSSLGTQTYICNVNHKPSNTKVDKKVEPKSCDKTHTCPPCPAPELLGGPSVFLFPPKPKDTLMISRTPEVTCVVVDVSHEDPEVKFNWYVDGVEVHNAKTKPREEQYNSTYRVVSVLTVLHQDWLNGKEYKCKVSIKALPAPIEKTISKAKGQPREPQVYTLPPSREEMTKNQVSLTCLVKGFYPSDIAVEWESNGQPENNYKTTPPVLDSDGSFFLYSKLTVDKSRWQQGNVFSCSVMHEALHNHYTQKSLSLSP
light: DIVMTQSPATLSLSPGERATLSCTSSQSVYHANWLSWFQQKPGQPPKLLIYWASTLAYGVPSRFSGSGSGTDFTLTISSLQPEDAATYYCAGGYGGGRYAFGQGTKVEIKRTVAAPSVFIFPPSDEQLKSGTASVVCLLNNFYPREAKVQWKVDNALQSGNSQESVTEQDSKDSTYSLSSTLTLSKADYEKHKVYACEVTHQGLSSPVTKSFNRGEC
notes: also called N325I

Columns and labels:
Test in all cases: SPR (Biacore), 25C, FcgR bound per antibody captured
[1] = biological target: T1, cynomolgus monkey FcγRIIa1 …
Description: (§1) In the next step, cross-reactivity of these substitutions to cynoFcγRs was evaluated.
(§2) The value of the amount of FcγR binding was obtained by dividing the amount of FcγR bound by the amount of each antibody captured.

[2] = biological target: T2, cynomolgus monkey FcγRIIa2 …
Description: as §1, §2

[3] = biological target: T3, cynomolgus monkey FcγRIIa3 …
Description: as §1, §2

[4] = biological target: T4, cynomolgus monkey FcγRIIb extracellular …
Description: as §1, §2

[5] = biological target: T5, cynomolgus monkey FcγRIIIaS …
Description: as §1, §2

Binder | Binding to cynoFcgRs (SG1 = 100) [1] | Binding to cynoFcgRs (SG1 = 100) [2] | Binding to cynoFcgRs (SG1 = 100) [3] | Binding to cynoFcgRs (SG1 = 100) [4] | Binding to cynoFcgRs (SG1 = 100) [5]
B1 | 16 | 15 | 21 | 18 | 12
B2 | 17 | 20 | 18 | 20 | –
B3 | 14 | 17 | 27 | 16 | 31
B4 | 13 | 14 | 21 | 12 | 24
B5 | 13 | 16 | 20 | 11 | 15
B6 | 13 | 13 | 17 | 14 | –
B7 | 14 | 15 | 19 | 16 | 20
